From article PMC4019693 (Nanomedicine : nanotechnology, biology, and medicine, 2013)
Values joined by “and” are separate entries in the source; they are usually repeats but may differ in a detail not shown here. Identical values can stand only once. “Also recorded” adds a separate entry of the source.

Key:
[1] = system: Aβ40; test: SMFS of Aβ40 interaction; format: binding; settings: Aβ40 vs Aβ42, neutral pH; ref [10]
[2] = system: Aβ40; settings: cited from earlier work
[3] = target: T1, Aβ42 (Homo sapiens, UniProt P05067); test: Single-molecule AFM force spectroscopy; format: binding; settings: pH 7
[4] = SDS-page gel experiment, monomer state of Aβ42; format: physicochemical; settings: diluted in different pH buffers from DMSO stock solution (Fig. S1)
[5] = target: T1, Aβ42; test: Contour length analysis of Aβ42 dimers; format: binding; settings: for Prevailing region of interpeptide interaction: in words
[6] = target: T1, Aβ42; test: Dynamic force spectroscopy; format: binding; settings: for Lifetime of the dimer: calculated by k^−1off, SD from five independent experiments
[7] = single representative curve (Fig. 2A), WLC fit, ALR ~4,000 pN/s
[8] = pH 7, area under Gaussian curve

T1 sequence (P05067 672-713 limits assumed): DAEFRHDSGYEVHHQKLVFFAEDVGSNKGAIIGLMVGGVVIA

## Aβ40: Aβ protein containing 40 residues; Aβ42 differs by two extra C terminal residues (I41 and A42)
[1]
  Dimer lifetime relative to Aβ42: four times shorter
[2]; Aβ40 dimer lifetime vs monomer dynamics, ref [10]
  Dimer lifetime relative to monomer dynamics: ~10^6 times
[2]; pH 7, N-terminal segment interactions, ref [10]
  Conformer population, major interactions (L0 and L1): 74%
[2]; ref [10]
  Lifetime of misfolded Aβ40 dimers: 0.1 s
[2]; result in words, reference not given, Aβ40 study is ref [10]
  Rupture forces of dimers compared to Aβ42: quite similar to those for Aβ42

## Aβ42: Aβ42 terminated with cysteine at N-terminus (AnaSpec, Inc., Fremont, CA)
[3]; four curves of Fig. 4A, similar ALR (~20,000 pN/s)
  Rupture force of representative curves with various contour lengths: 150±20 pN
[3]; [7]
  Contour length, representative F-D curve: ~ 58 nm
  Rupture force, representative F-D curve: ~ 83 pN
[4]
  Monomer state by SDS-page gel: The monomer state of Aβ42 diluted in different pH buffers from the stock solution was confirmed
[5]; acidic pH (2.7)
  Prevailing region of interpeptide interaction: interaction within the peptide center prevailed
[5]; pH 2.7 vs pH 7, result in words
  Conformer population, model L3 (C-termini), change vs pH 7: three-fold drop in the interaction between the C-termini (model L3)
[5]; [8]
  Conformer population, model L0 (interactions very close to N-termini): 13%
  Conformer population, model L1 (middle segments): 29%
[5]; pH 7
  Prevailing region of interpeptide interaction: Interaction via C-terminal segments prevailed
[5]; pH 7 and 2.7, L0
  Contour length, Gaussian center L0: around 35 nm
[5]; pH 7 and 2.7, L1
  Contour length, Gaussian center L1: ~41 nm
[5]; pH 7 and 2.7, L2
  Contour length, Gaussian center L2: ~47 nm
[5]; pH 7 and 2.7, L3
  Contour length, Gaussian center L3: ~53 nm
[6]; SMFS/DFS, pH not given
  Lifetime of dimers (in words): in the range of a second; also recorded: higher than that of Aβ40
[6]; pH 2.7
  Lifetime of the dimer: 2.5±0.7 s and 2.5 s and 2.5 (±0.7) s
[6]; pH 2.7 vs pH 7
  Increase of the dimer lifetime, pH 2.7 vs pH 7: ~5 fold
[6]; pH 7
  Lifetime of the dimer: 0.46 (±0.25) s
[6]; pH 7, calculated from koff
  ΔG, barrier height for dimer dissociation: ~ 28.3 kBT
